Laboratory results reported in paper PMC9482650, “Quantitative fragmentomics allow affinity mapping of interactomes” (Nature Communications, 2022).

T1: RAPGEF6, Q8TEU7
T1 sequence (Q8TEU7 525-625, limits assumed, looked up): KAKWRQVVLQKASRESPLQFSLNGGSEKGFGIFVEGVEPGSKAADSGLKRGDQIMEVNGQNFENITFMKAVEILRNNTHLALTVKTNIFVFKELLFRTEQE

T2: MPP6, Q9NZW5
T2 sequence (Q9NZW5 125-219, limits assumed, looked up): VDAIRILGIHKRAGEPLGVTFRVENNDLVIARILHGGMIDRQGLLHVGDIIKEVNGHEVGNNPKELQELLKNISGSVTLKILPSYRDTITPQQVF

T3: CARD11, Q9BXL7
T3 sequence (Q9BXL7 662-765, limits assumed, looked up): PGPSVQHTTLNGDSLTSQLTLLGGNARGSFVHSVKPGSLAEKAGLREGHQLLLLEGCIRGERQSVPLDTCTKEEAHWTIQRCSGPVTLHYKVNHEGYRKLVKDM

T4: DFNB31_1, Q9P202
T4 sequence (Q9P202 135-233, limits assumed, looked up): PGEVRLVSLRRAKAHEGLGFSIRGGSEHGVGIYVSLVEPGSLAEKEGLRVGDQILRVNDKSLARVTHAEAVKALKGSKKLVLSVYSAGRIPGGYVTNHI

T5: GRIP1_2, Q9Y3R0
T5 sequence (Q9Y3R0 145-248, limits assumed, looked up): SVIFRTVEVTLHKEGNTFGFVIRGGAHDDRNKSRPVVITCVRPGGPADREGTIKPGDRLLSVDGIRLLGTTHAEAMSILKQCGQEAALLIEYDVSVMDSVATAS

T6: MPDZ_10, O75970
T6 sequence (O75970 1624-1722, limits assumed, looked up): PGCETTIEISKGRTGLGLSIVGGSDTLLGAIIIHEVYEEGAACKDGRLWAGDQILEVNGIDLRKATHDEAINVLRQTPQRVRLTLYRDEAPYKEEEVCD

T7: MPDZ_5, O75970
T7 sequence (O75970 695-796, limits assumed, looked up): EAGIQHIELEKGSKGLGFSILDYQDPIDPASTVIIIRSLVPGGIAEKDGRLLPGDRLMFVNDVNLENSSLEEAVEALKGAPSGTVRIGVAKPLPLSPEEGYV

T8: RADIL, Q96JH8
T8 sequence (Q96JH8 971-1071, limits assumed, looked up): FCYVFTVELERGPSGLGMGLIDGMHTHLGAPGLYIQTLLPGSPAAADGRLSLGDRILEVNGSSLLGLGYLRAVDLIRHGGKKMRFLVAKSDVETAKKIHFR

T9: MPP7, Q5T2T1
T9 sequence (Q5T2T1 134-230, limits assumed, looked up): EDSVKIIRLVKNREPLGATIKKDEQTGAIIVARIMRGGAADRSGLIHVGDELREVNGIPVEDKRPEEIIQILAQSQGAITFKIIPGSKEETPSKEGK

T10: GRIP1_7, Q9Y3R0
T10 sequence (Q9Y3R0 999-1096, limits assumed, looked up): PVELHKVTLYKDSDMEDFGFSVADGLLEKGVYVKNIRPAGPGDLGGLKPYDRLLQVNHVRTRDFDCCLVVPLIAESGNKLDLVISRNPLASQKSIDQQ

T11: LRRC7, Q96NW7
T11 sequence (Q96NW7 1440-1537, limits assumed, looked up): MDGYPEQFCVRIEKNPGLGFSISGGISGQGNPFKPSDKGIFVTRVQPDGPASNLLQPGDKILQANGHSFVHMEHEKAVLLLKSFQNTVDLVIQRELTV


Assays:
Assay in all cases: holdup assay
Set-up in all cases: key: below the threshold = too weak to quantify, mostly under pKd 3.1 to 4
Conditions in all cases: plain residues with an end cap or a label only (N-terminal biotin on a linker: ado-ado)
[1] = molecular target: Inadl_2, Q8NI35
Inadl_2, Q8NI35, sequence (Q8NI35 238-335): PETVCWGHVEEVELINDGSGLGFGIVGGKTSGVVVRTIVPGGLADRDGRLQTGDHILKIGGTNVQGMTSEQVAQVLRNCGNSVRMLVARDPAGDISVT

[2] = molecular target: GRIP2_6, Q9C0E4
GRIP2_6, Q9C0E4, sequence (Q9C0E4 648-740): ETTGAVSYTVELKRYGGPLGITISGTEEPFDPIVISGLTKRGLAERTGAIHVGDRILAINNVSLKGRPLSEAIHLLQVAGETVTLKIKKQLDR

[3] = molecular target: NHERF4_1, Q86UT5-2
NHERF4_1, Q86UT5-2, sequence (Q86UT5 other isoform, or with tags, fused parts or gaps): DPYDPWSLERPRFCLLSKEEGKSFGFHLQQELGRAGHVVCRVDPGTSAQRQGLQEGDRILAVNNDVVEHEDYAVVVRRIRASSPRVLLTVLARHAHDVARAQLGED

[4] = molecular target: T1, RAPGEF6, Q8TEU7
[5] = molecular target: HTRA2, O43464
HTRA2, O43464, sequence (O43464 355-458): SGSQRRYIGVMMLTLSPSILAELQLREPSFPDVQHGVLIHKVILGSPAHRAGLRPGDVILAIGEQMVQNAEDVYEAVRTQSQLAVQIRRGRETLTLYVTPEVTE

[6] = molecular target: LDB3, O75112
LDB3, O75112, sequence (O75112 1-94): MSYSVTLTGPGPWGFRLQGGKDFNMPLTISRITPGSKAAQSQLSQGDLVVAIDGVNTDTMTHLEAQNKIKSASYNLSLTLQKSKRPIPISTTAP

[7] = molecular target: T2, MPP6, Q9NZW5
[8] = molecular target: FRMPD3, Q5JV73
FRMPD3, Q5JV73, sequence (Q5JV73 12-100): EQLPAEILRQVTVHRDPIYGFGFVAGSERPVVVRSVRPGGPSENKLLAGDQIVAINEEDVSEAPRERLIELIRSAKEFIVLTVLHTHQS

[9] = molecular target: T3, CARD11, Q9BXL7
[10] = molecular target: T4, DFNB31_1, Q9P202
[11] = molecular target: T5, GRIP1_2, Q9Y3R0
[12] = molecular target: T6, MPDZ_10, O75970
[13] = molecular target: IL16_1, Q14005
IL16_1, Q14005, sequence (Q14005 210-306): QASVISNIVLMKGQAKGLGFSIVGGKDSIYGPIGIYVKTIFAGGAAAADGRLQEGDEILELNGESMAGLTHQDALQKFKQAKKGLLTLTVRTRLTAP

[14] = molecular target: MAST1, Q9Y2H9
MAST1, Q9Y2H9, sequence (Q9Y2H9 962-1065): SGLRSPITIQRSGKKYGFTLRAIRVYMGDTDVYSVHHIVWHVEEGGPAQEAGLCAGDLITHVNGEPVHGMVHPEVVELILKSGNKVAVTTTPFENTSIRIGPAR

[15] = molecular target: T7, MPDZ_5, O75970
[16] = molecular target: T8, RADIL, Q96JH8
[17] = molecular target: FRMPD2_2, Q68DX3
FRMPD2_2, Q68DX3, sequence (Q68DX3 944-1038): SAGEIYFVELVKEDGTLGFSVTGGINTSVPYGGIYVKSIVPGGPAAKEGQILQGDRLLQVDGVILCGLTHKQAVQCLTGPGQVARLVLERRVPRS

[18] = molecular target: FRMPD4, Q14CM0
FRMPD4, Q14CM0, sequence (Q14CM0 67-160): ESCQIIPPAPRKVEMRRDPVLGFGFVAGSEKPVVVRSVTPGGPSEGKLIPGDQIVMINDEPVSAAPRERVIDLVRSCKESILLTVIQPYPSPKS

[19] = molecular target: MAGI2_5, Q86UL8
MAGI2_5, Q86UL8, sequence (Q86UL8 915-1017): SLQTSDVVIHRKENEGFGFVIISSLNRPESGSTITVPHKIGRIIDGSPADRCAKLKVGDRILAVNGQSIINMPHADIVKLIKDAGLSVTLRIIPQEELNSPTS

[20] = molecular target: GOPC, Q9HD26
[21] = molecular target: T9, MPP7, Q5T2T1
[22] = molecular target: T10, GRIP1_7, Q9Y3R0
[23] = molecular target: MAGI3_2, Q5TCQ9
MAGI3_2, Q5TCQ9, sequence (Q5TCQ9 398-503): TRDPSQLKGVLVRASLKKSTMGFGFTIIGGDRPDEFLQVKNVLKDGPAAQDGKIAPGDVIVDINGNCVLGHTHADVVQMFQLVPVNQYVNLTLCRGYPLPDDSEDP

[24] = molecular target: T11, LRRC7, Q96NW7
[25] = molecular target: DLG4_2, P78352
DLG4_2, P78352, sequence (P78352 155-259): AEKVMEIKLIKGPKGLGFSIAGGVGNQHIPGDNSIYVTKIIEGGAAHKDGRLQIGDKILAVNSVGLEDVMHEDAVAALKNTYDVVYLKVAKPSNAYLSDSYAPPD

[26] = molecular target: Inadl_4, Q8NI35
Inadl_4, Q8NI35, sequence (Q8NI35 547-651): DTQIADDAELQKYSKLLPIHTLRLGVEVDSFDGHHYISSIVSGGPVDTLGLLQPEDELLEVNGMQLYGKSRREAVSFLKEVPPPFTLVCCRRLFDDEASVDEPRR

pKd [1]	pKd [2]	pKd [3]	pKd [4]	pKd [5]	pKd [6]	pKd [7]	pKd [8]	pKd [9]	pKd [10]	pKd [11]	pKd [12]	pKd [13]	pKd [14]	pKd [15]	pKd [16]	pKd [17]	pKd [18]	pKd [19]	pKd [20]	also measured	Binder
below the threshold	below the threshold	below the threshold	below the threshold	below the threshold	below the threshold	below the threshold	below the threshold	below the threshold	below the threshold	below the threshold	below the threshold	4.05	below the threshold	below the threshold	below the threshold	3.78	below the threshold	below the threshold	below the threshold	pKd [21]: below the threshold; pKd [22]: below the threshold; pKd [23]: 4.32; pKd [24]: 3.91; pKd [25]: 5.29; pKd [26]: below the threshold	KKMPSIESDV [GRIN2A, Q12879]
below the threshold	below the threshold	3.57	below the threshold	3.74	below the threshold	3.9	below the threshold	below the threshold	below the threshold	below the threshold	below the threshold	below the threshold	below the threshold	below the threshold	4.6	below the threshold	3.58	below the threshold	below the threshold	pKd [21]: below the threshold; pKd [22]: below the threshold; pKd [23]: below the threshold; pKd [24]: below the threshold; pKd [25]: below the threshold; pKd [26]: below the threshold	HSGYRLNDYV [CLDN14, O95500]
below the threshold	below the threshold	below the threshold	below the threshold	below the threshold	below the threshold	below the threshold	below the threshold	below the threshold	4.02	below the threshold	below the threshold	4.1	3.9	below the threshold	4.35	4.1	below the threshold	4.36	3.82	pKd [21]: below the threshold; pKd [22]: below the threshold; pKd [23]: 5.27; pKd [24]: below the threshold; pKd [25]: 4.82; pKd [26]: below the threshold	TACCHSETVV [TGFA, P01135]
below the threshold	below the threshold	below the threshold	below the threshold	below the threshold	below the threshold	below the threshold	below the threshold	below the threshold	below the threshold	below the threshold	3.85	3.83	4.31	below the threshold	below the threshold	3.82	below the threshold	below the threshold	3.5	pKd [21]: below the threshold; pKd [22]: below the threshold; pKd [23]: 4.05; pKd [24]: 3.72; pKd [25]: 4.38; pKd [26]: below the threshold	DDENIRTSDV [PLEKHA2, Q9HB19]
